Literature values as cited in article PMC7106362.

Molecular target: m157 (Murine cytomegalovirus) (UniProt A8E1S5)
Assay: SPR

Q: With Ly49H (from UniProt Q60682) as the substance, how does the Kd read?
A: 1 µM
